Assay results reported in US20230235047A1 (Innovent, published 2023).
Residue numbers refer to the chain shown, from its start. Each block holds one binder with its values, some of them ahead of it.

Legend:
[1] = biological target: T1, human CLDN18.1 on cells (CHO-hCLDN18.1) (human, UniProt P56856 1-261); assay: flow cytometry, hybridoma supernatant on CHO-hCLDN18.1
T1 construct: whole, on cells; also called human Claudin18.1

[2] = biological target: T2, human Claudin18.2 protein (P50251802, GenScript) (human, UniProt P56856-2 1-261, limits assumed); assay: SPR (Biacore T200), human Claudin18.2 amine-coupled to the chip, antibody 0-100 nM in the mobile phase, 1:1 model
T2 construct: also called human CLDN18.2
Description: According to the manufacturer's instructions, human Claudin18.2 (GenScrip, P50251802) was coupled to the surface of a CMS chip (GE Healthcare, 29-1496-03) using the amino coupling kit (GE Healthcare, BR-1006-33), and the remaining activation sites were blocked by injection of 1 M ethanolamine after coupling. According to the manufacturer's instructions, the binding and dissociation between the antigen on the chip surface and antibodies in the mobile phase were determined by Biacore (GE Healthcare, T200) to obtain affinity and kinetic constants. The antibodies (0-100 nM) after gradient dilution flowed over the chip surface in an order from low to high concentrations, with the binding time of 180 s and the dissociation time of 600 s. Finally, the chip was regenerated using 10 mM Glycine pH 1.5 (GE Healthcare, BR-1003-54). Kinetic analysis of the data results were performed using Biacore T200 analysis software with a 1:1 binding model.

[3] = biological target: T1, human CLDN18.1 on cells (CHO-hCLDN18.1); assay: flow cytometry (FACS) on CHO-hCLDN18.1 cells
Description: (§1) The binding of each of the above 9 antibodies to the CHO-S cell lines stably transfected with human CLDN18.2 and human CLDN18.1 (i.e., CHO-hCLDN18.2 and CHO-hCLDN18.1 prepared as described in the Examples) obtained in Example 1 was determined by flow cytometry (FACS). Reference was made to Example 2 for the experimental methods. The experimental data were analyzed using GraphPad Prism software, and FIGS. 1 and 2 were obtained.

[4] = biological target: T3, human CLDN18.2 on cells (CHO-hCLDN18.2, HEK293-hCLDN18.2, KATO III-hCLDN18.2, DAN-G-hCLDN18.2, NUGC-4) (human, UniProt P56856-2 1-261); assay: flow cytometry (FACS) on CHO-hCLDN18.2 cells, MFI against Log[Conc.(nM)]; EC50 from the table under the plot
T3 construct: whole, on cells; NUGC-4 is used untransfected; also called human Claudin18.2
Description: as §1

[5] = biological target: T2, human Claudin18.2 protein (P50251802, …); assay: BLI (Fortebio Octet Red96), AHC sensor, antibody and human Claudin18.2 protein (GenScript)
Description: The equilibrium dissociation constant (KD) for binding of the antibodies of the present invention to human CLDN18.2 was determined by bio-layer interferometry (BLI). A BLI affinity assay was conducted according to the existing method (Estep, P et al., High throughput solution based measurement of antibody-antigen affinity and epitope binding. MAbs, 2013.5(2): p. 270-8). The AHC (18-5060, Fortebio) sensor was soaked in SD buffer (lx PBS, BSA 0.1%, Tween-20 0.05%). 100 μL of SD buffer, each antibody and human Claudin18.2 protein (P50251802, GenScript) were added to a 96-well black polystyrene half-area microplate (Greiner, 675076), respectively. The detection was performed using Fortebio Octet Red96, and the KD values were analyzed using Fortebio Octet analysis software.

B2: 38F8 (antibody secreted by the hybridoma, culture supernatant) (antibody, V domains shown)
VH: EVQLVESGGGLVKPGGSLKLSCAASGFSFSDYGMHWVRQAPEKGLEWIAYINSGSRTLYYADTVKGRFTISRDNAKNTLFLQMTSLRSEETAMYYCTRNAYYGNAMDYWGQGTSVTVSS
VL: DIQMTQSPSSLTVTAGEKVTMSCKSSQSLLNSGNQRNYLTWYQQIPGQPPKLLIYWSSTRGSGVPDRFTGSGSGTDFTLTISSVQAEDLAVYFCQNVYYYPFTFGSGTRLEVK
binding result [1]: no binding

B3: Hz51H10 (antibody, human IgG1, kappa, V domains shown)
VH: QVQLVQSGAEVKKPGASVKVSCKASGYTFTKYIIQWVRQAPGQRLEWMGYINPYNDDTKYNEKFKGRVTITRDTSASTAYMELSSLRSEDMAVYYCARTYYGNSFPNWGQGTLVTVSS
VL: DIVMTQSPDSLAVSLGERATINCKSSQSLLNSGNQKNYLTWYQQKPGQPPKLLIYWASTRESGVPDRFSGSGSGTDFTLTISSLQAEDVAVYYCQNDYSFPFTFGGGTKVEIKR
Kd [2]: 1.94 nM
koff [2]: 0.000631 s⁻¹
kon [2]: 325000 M⁻¹ s⁻¹

B6: 59C1 (antibody secreted by the hybridoma, culture supernatant) (antibody, V domains shown)
VH: QVQLKESGPDLVKPSQSLSLTCTVTGYSITSGYGWNWIRQFPGNKLEWMGYIHFSGSTNYNPSLKSRISITRDTSKNQFFLQLNSVTTEDTATYYCARSGKGNAMDYWGQGTSVTVSS
VL: DIQMTQSPSSLTVTAGEKVTMSCKSSQSLLNSGNQKNYLTWYQQKPGQPPKLLIYWASTRESGVPDRFTGSGSGTDFTLTVINMQAEDLALYYCQNDYYFPFTFGSGTKLEIK
binding result [1]: no binding

B7: 14A5 (antibody secreted by the hybridoma, culture supernatant) (antibody, V domains shown)
VH: QVQLKESGPGLVAPSQSLSITCSVSGFSLNSYGVGWVRQPPGKGLEWLGVIWGDGSTNYHSVLISRLSIRKDNSKSQVFLKLNSLQTDDTATYYCAMITRGNAMDYWGQGTSVTVSS
VL: DIVMTQSPSSLTVTAGEKITMSCKSSQSLLNSGNQRNYLTWYQQKPGQTPKLLIYWASTRKSGVPDRFTGSGSGTDFTLTISSVQAEDLAVYSCQNNYLFPLTFGAGTKLELK
binding result [1]: no binding

B11: 69H9 (antibody secreted by the hybridoma, culture supernatant) (antibody, V domains shown)
VH: EVQLQQSGPELMKPGASVKISCKATGYSFSSYNIHWVKQSHGKSLEWIGYIAPFNGDSRYNQKFKGKATVTVDKSSSTAYMHLSSLTSEDSAVYYCGRLNRGNSLDYWGQGTSLTVSS
VL: B7 VL with I19V, L30F, T49P, K61E, V91F, S93Y, L99I, F100Y
binding result [1]: no binding

B12: Hz38F8 (antibody, human IgG1, kappa, V domains shown)
VH: EVQLVESGGGLVQPGGSLRLSCAASGFSFSDYGMHWVRQAPGKGLEWVSYINSGSRTLYYADTVKGRFTISRDNAKNSLYLQMNSLRDEDTAVYYCARNAYYGNAMDYWGQGTLVTVSS
VL: DIVMTQSPDSLAVSLGERATINCKSSQSLLNSGNQRNYLTWYQQKPGQPPKLLIYWSSTRGSGVPDRFSGSGSGTDFTLTISSLQAEDVAVYYCQNVYYYPFTFGQGTRLEIKR
Kd [2]: 0.314 nM
koff [2]: 9.97e-05 s⁻¹
kon [2]: 318000 M⁻¹ s⁻¹

B13: Hz59C1 (antibody, human IgG1, kappa, V domains shown)
VH: QVQLQESGPGLVKPSETLSLTCTVSGYSITSGYGWNWIRQPPGKGLEWIGYIHFSGSTNYNPSLKSRVTISVDTSKNQFSLKLSSVTAADTAVYYCARSGKGNAMDYWGQGTLVTVSS
VL: B12 VL with R36K, S57A, G61E, V97D, Y100F, Q106G, R109K, L110V
Kd [2]: 1.75 nM
koff [2]: 0.000433 s⁻¹
kon [2]: 248000 M⁻¹ s⁻¹

B14: Hz3G3 (antibody, human IgG1, kappa, V domains shown)
VH: QVQLVQSGAEVKKPGASVKVSCKASGYSFTTYWMHWVRQAPGQGLEWMGLIDPSDSETRLNQKFKDRVTMTVDTSTSTVYMELSSLRSEDTAVYYCASNRWLLGWGQGTLVTVSS
VL: B12 VL with R36K, S57A, G61E, V97D, Y99S, F102L, R109K
Kd [2]: 14.2 nM
koff [2]: 0.000799 s⁻¹
kon [2]: 56500 M⁻¹ s⁻¹

B15: Hz46F6 (antibody, human IgG1, kappa, V domains shown)
VH: QVQLQESGPGLVKPSETLSLTCTVSGFSLTDYGVSWIRQPPGKGLEWIGVMWGGGNTYYNSALKSRVTISVDTSKNQFSLKLSSVTAADTAVYYCARQRYGGNAMDYWGQGTLVTVSS
VL: B12 VL with S57A, G61E, V97S, Y99F, Q106G, R109K, L110V
Kd [2]: 1.03 nM
koff [2]: 0.00015 s⁻¹
kon [2]: 147000 M⁻¹ s⁻¹

Other lines, results leading:

binding result [1]: no binding
B1: HB37A6 (antibody secreted by the hybridoma, culture supernatant) (antibody, V domains shown)
VH: EVQLLDSGGGLVQPGGSLRLSCAASGFTFSSYVMSWVRQAPGKGLNWVSTISHSGGSTYYADSVKGRFTISRDNSKNTLYLQMNSLRAEDTAVYYCAIDAPYYDILTGYRYWGQGTLVTVSS
VL: not shown

binding result [3]: no binding
EC50 [4]: 7.51 nM
Kd [5]: 1.9 nM
B4: 51H10 (antibody, human IgG1, kappa, V domains shown)
VH: EVQLQQSVPELVKPGASVRMSCKASGYTFTKYIIQWVKQKPGQGLEWIAYINPYNDDTKYNEKFKGKATLTSDKSASTAYMELSSLTSEDSAVYYCATTYYGNSFPNWGQGTLVTVSA
VL: DIVMTQSPSSLTVTAGERVTMTCKSSQSLLNSGNQKNYLTWYQQKPGQPPKLLIYWASTRESGVPDRFTGSGSGTDFTLTISSLQSEDLAVYFCQNDYSFPFTFGSGTKLEIKR

binding result [1]: no binding
B5: 51H10 (antibody secreted by the hybridoma, culture supernatant) (antibody, V domains shown)
VH: B4 VH
VL: DIVMTQSPSSLTVTAGERVTMTCKSSQSLLNSGNQKNYLTWYQQKPGQPPKLLIYWASTRESGVPDRFTGSGSGTDFTLTISSLQSEDLAVYFCQNDYSFPFTFGSGTKLEIK

binding result [1]: no binding
B8: 3G3 (antibody secreted by the hybridoma, culture supernatant) (antibody, V domains shown)
VH: QVQLQQSGPQLVRPGASVKISCKASGYSFTTYWMHWVKQRPGQGLEWIGLIDPSDSETRLNQKFKDKATLTVDKSSSTAYMRLSSPTSEDSAVYYCASNRWLLGWGQGTLVTVSS
VL: B5 VL with V3Q, T5I, R18K, T22S, L84V, S86T, F93Y, F100Y, F102L, S106A

binding result [1]: no binding
B9: 46F6 (antibody secreted by the hybridoma, culture supernatant) (antibody, V domains shown)
VH: QVQLKESGPGLVAPSQSLSITCTVSGFSLTDYGVSWIRQPPGKGLEWLGVMWGGGNTYYNSALKSRLSISKDNSKSQVFLKMNSLQSDDTAMYYCAKQRYGGNAMDYWGQGTSVTVSS
VL: DIQMTQSPSSLTVTAGEKVTMSCKSSQSLLNSGNQRNYLTWYQQIPGQPPKLLIYWASTRESGVPNRFTGSGSGAEFTLTISSVQTEDLAVYYCQNSYFYPFTFGAGTKLELK

binding result [1]: no binding
B10: 25C7 (antibody secreted by the hybridoma, culture supernatant) (antibody, V domains shown)
VH: EVMLVESGGGLVQPGGSRKLSCAASGFTFSDYGMAWVRQAPGKGPEWVAFINNLAYSIYYVDTVTGRFTISRENAKDTLYLEMSSLRSEDTALYYCARFTTGNVMDYWGQGTSVTVSS
VL: DIVMTQSPSSLTVTAGEKVTMTCKSSQSLLNGGNQKNYLTWYQQKPGQPPKLLIYWSSTRESGVPDRFTGSGSGTDFTLTITSVQAEDLAVYYCQNSYSYPLTFGSGTKLELK

Kd [2]: 9.84 nM
koff [2]: 0.00114 s⁻¹
kon [2]: 116000 M⁻¹ s⁻¹
B16: Hz25C7 (antibody, human IgG1, kappa, V domains shown)
VH: EVQLVESGGGLVQPGGSLRLSCAASGFTFSDYGMAWVRQAPGKGLEWVAFINNLAYSIYYVDTVTGRFTISRDNAKNSLYLQMNSLRAEDTAVYYCARFTTGNVMDYWGQGTLVTVSS
VL: B12 VL with N31Q, S32G, R36K, G61E, V97S, Y99S, F102L, Q106G, R109K, L110V

Kd [2]: 0.49 nM
koff [2]: 0.000208 s⁻¹
kon [2]: 424000 M⁻¹ s⁻¹
B17: Hz14A5 (antibody, human IgG1, kappa, V domains shown)
VH: QVQLQESGPGLVKPSETLSLTCTVSGFSLNSYGVGWIRQPPGKGLEWIGVIWGDVSTNYHSVLISRVTISKDTSKNQVSLKLSSVTAADTAVYYCARITRGNAMDYWGQGTLVTVSS
VL: B12 VL with S57A, G61K, V97N, Y99L, Y100F, F102L, Q106G, R109K, L110V
